Measured values reported in article PMC7673040 (Nature Communications, 2020).

Target: human nascent polypeptide-associated complex (NAC), unlabeled (human, UniProt Q13765 1-215; P20290-2 1-162)
Experiment: other fluorescence titration; competition: 1 nM RNC^BDP and 20 nM NAC^Cy3B pre-incubated, unlabeled NAC or NACmt added; FRET fit to Eq. (6); Assay buffer with 1 mg/mL BSA
Details: both partners purified

B1: ribosome-nascent chain complex bearing the first ~90 amino acids of pPL(ss), labelled with BODIPY-FL on the nascent chain (complex)
chain: MDSKGSSQKGSKLALALLLLLLALALCQGVVSTPVCPNGPGNCQVSLRDLFDRAVMVSHYIHDLSSEMFNEFDKRYAQGKGFITMALNSCHTV
modifications: axial-trans-cyclooct-2-en-L-Lysine (TCOK) at an amber codon one residue upstream of the signal sequence, labelled with tetrazine-conjugated BODIPY-FL (BDP)
A Kd of 0.55 nM was found for B1 in this work.

B2: ribosome-nascent chain complex bearing the first ~90 amino acids of pPL(ssmt), labelled with BODIPY-FL on the nascent chain (complex)
chain: MDSKGSSQKGSKLLLRRVVSNLLLCQGVVSTPVCPNGPGNCQVSLRDLFDRAVMVSHYIHDLSSEMFNEFDKRYAQGKGFITMALNSCHTV
modifications: axial-trans-cyclooct-2-en-L-Lysine (TCOK) at an amber codon one residue upstream of the signal sequence, labelled with tetrazine-conjugated BODIPY-FL (BDP)
A Kd of 0.5 nM was found for B2 in this work.
